Assay results taken from article PMC2700083, “A covalent peptide inhibitor of RGS4 identified in a focused one-bead, one compound library screen” (BMC Pharmacology, 2009).
Residue numbers refer to the chain shown, from its start. Bridges are numbered along the chain shown (N, C = ends).

T1: RGS8 full length, MBP fusion (human, UniProt P57771 1-180, biotin (sites not given))
T1 construct: RGS8, human, full length; source: expressed, purified and labeled as described previously [5]
T1 sequence (looked up): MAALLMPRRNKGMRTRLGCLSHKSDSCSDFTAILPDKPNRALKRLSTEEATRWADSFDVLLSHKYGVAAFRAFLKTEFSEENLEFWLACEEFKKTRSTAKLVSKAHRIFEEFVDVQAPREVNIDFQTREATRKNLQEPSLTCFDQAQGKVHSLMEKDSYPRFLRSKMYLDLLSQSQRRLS

T2: RGS16 full length, MBP fusion (human, UniProt O15492 1-202)
T2 construct: RGS16, human, full length; source: expressed, purified and labeled as described previously [5]
T2 sequence (looked up): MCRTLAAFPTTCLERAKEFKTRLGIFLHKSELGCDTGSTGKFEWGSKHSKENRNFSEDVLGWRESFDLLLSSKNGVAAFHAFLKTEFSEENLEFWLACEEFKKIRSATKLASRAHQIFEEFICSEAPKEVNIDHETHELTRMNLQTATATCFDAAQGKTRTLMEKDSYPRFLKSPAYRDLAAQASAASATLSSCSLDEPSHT

T3: RGS19ΔC11 (amino acids 1–209), MBP fusion (human, UniProt P49795 1-209)
T3 construct: RGS19, human, ΔC11, amino acids 1-209; source: expressed, purified and labeled as described previously [5]
T3 sequence (looked up): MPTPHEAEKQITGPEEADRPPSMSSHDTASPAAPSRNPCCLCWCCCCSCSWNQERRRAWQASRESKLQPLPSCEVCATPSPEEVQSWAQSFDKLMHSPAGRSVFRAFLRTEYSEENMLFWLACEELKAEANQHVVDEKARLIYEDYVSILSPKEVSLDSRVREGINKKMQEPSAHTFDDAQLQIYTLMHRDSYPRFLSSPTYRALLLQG

T4: RGS7 RGS domain (aa: 305–453), MBP fusion (human, UniProt P49802 305-453)
T4 construct: RGS7, human, RGS domain, aa 305-453; source: expressed, purified and labeled as described previously [5]
T4 sequence (looked up): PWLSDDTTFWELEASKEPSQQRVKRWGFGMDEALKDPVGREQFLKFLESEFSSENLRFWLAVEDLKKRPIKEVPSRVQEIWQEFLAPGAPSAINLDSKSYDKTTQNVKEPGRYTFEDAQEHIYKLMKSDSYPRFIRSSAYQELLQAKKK

B1: Peptide 5nd (Tyr-Trp-c[Cys-Lys-Gly-Leu-Cys]-Lys-NH2, S-S) (peptide)
peptide: H-YWCKGLCK-NH2
modifications: disulfide 3-7
SMILES: CC(C)C[C@@H]1NC(=O)CNC(=O)[C@H](CCCCN)NC(=O)[C@@H](NC(=O)[C@H](Cc2c[nH]c3ccccc23)NC(=O)[C@@H](N)Cc2ccc(O)cc2)CSSC[C@@H](C(=O)N[C@@H](CCCCN)C(N)=O)NC1=O
notes: hit peptide from the focused OBOC library screen; also called peptide 7nd in Roof et al, 2008; hit 5; source: synthetic peptide
B2: Peptide 5ad (Ac-YWCKGLCK-NH2, S-S) (peptide)
peptide: Ac-YWCKGLCK-NH2
modifications: disulfide 3-7 (inferred)
notes: hit peptide from the focused OBOC library screen; source: synthetic peptide
B3: Peptide 6nd (KHCYGFCY-NH2, S-S) (peptide)
peptide: H-KHCYGFCY-NH2
modifications: disulfide 3-7 (inferred)
notes: hit peptide from the focused OBOC library screen; also called hit 6; peptide 14 in Roof et al 2008; source: synthetic peptide
B4: Peptide 6ad (Ac-KHCYGFCY-NH2, S-S) (peptide)
peptide: Ac-KHCYGFCY-NH2
modifications: disulfide 3-7 (inferred)
notes: as for B2
B5: MBP-RGS4Δ51N, wild type, biotinylated (domain or fragment, UniProt P49799 52-205, looked up)
chain: SQEEVKKWAESLENLINHECGLAAFKAFLKSEYSEENIDFWISCEEYKKIKSPSKLSPKAKKIYNEFISVQATKEVNLDSCTREETSRNMLEPTITCFDEAQKKIFNLMEKDSYRRFLKSRFYLDLTNPSSCGAEKQKGAKSSADCTSLVPQCA
modifications: biotin (sites not given)
notes: RGS4 from which the amphipathic N-terminal helix has been removed (RGS4Δ51N); Rat RGS4 is surmised from the group's earlier work; His6 lies between MBP and RGS4 (MBP-His6-RGS4Δ51N) with a TEV site; also called wild type RGS4-biotin; biotin-RGS4; source: expressed, purified and labeled as described previously [5]; not shown: MBP, N-terminal, kept
B6: MBP-RGS4Δ51N C95A (domain or fragment, UniProt P49799 52-205, looked up)
chain: B5 chain with C44A
modifications: biotin (sites not given)
notes: RGS4Δ51N; source: expressed, purified and labeled as described previously [5]; not shown: MBP, N-terminal, kept
B7: MBP-RGS4Δ51N C148A (domain or fragment)
chain: not shown
modifications: biotin (sites not given)
notes: as for B6
B8: MBP-RGS4Δ51N C71A (domain or fragment, UniProt P49799 52-205, looked up)
chain: B5 chain with C20A
modifications: biotin (sites not given)
notes: as for B6
B9: MBP-RGS4Δ51N C132A (domain or fragment, UniProt P49799 52-205, looked up)
chain: B5 chain with C81A
modifications: biotin (sites not given)
notes: as for B6
B10: Peptide 2nd (GTCFGTCW-NH2, S-S) (peptide)
peptide: H-GTCFGTCW-NH2
modifications: disulfide 3-7 (inferred)
notes: hit peptide from the focused OBOC library screen; also called hit 2; source: synthetic peptide

What was measured:
Details in all cases: both partners purified
[1] = target: B5; test: FCPIA (flow cytometry protein interaction assay, Luminex beads); dose response curves for 5nd with different RGS proteins on beads and labeled Gαo; curves constrained to 100% and 0%
[2] = target: T1, RGS8 full length, MBP fusion; test: as above
[3] = target: T2, RGS16 full length, MBP fusion; test: as above
[4] = target: T3, RGS19ΔC11 (amino acids 1–209), MBP …; test: as above
[5] = target: T4, RGS7 RGS domain (aa: 305–453), MBP …; test: as above
[6] = target: B5; test: FCPIA (flow cytometry protein interaction assay, Luminex beads); dose curves of 5nd on RGS4 cysteine mutants (5 nM, or 20 nM for the mutants with no Cys in the domain or the C-terminus) and labeled Gαo; curves constrained to 100% and 0%
MBP-RGS4Δ51N C95A = target: B6; test: as above
MBP-RGS4Δ51N C148A = target: B7; test: as above
MBP-RGS4Δ51N C71A = target: B8; test: as above
MBP-RGS4Δ51N C132A = target: B9; test: as above
[7] = target: B5; test: FCPIA (flow cytometry protein interaction assay, Luminex beads); competition at one peptide concentration (50 μM unless the cell says otherwise); 5 nM wild type RGS4-biotin on avidin beads, 25 nM Gαo-Alexa Fluor 532, with AMF (AlCl3, MgCl2, NaF and GDP)
[8] = target: T5, Gαo, Alexa Fluor 532-labeled (UniProt P59215 1-354, Alexa Fluor 532 label (sites not given)); test: FCPIA (flow cytometry protein interaction assay, Luminex beads); Gαo affinities for RGS4Δ51N wild type and mutants on beads, with AMF
T5 construct: G protein alpha subunit Gαo; Used in the presence of AMF (AlCl3, MgCl2, NaF and GDP) to put it into a transition state-like conformation; source: expressed, purified and labeled as described previously [5]
T5 sequence (P59215 whole entry): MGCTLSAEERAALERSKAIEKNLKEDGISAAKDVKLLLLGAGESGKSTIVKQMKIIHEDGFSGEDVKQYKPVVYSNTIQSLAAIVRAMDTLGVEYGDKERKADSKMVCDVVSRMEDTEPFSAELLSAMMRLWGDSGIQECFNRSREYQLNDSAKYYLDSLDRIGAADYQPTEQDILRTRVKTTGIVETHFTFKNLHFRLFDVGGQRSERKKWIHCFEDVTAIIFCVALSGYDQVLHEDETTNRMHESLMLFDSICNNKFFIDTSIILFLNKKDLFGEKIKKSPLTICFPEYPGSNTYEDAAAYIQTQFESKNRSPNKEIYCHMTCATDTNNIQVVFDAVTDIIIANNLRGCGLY

B1 was tested, and the IC50 [1] was 28 µM, the logIC50 [1] was -4.56 log M and the IC50 [2] was 43 µM. For the same binder, the logIC50 [2] was -4.36 log M, the IC50 [3] was 66 µM and the logIC50 [3] was -4.18 log M. For the same binder, the IC50 [4] was about 145 µM, the logIC50 [4] was about -3.84 log M and the IC50 [5] was about 175 µM. The logIC50 [5] was about -3.76 log M, the logIC50 [6] was -4.36 log M and the logIC50 (MBP-RGS4Δ51N C95A) was -4.71 log M. It also gave a logIC50 (MBP-RGS4Δ51N C148A) of -4.27 log M, a logIC50 (MBP-RGS4Δ51N C71A) of -4.34 log M and a logIC50 (MBP-RGS4Δ51N C132A) of -3.86 log M. For the same binder, the “% inhibition of RGS4-Gαo” value [7] was 80%.

B2 was tested, and the “% inhibition of RGS4-Gαo” value [7] was 37%.

In the case of B3, the “% inhibition of RGS4-Gαo” value [7] is reported as 23%.

In the case of B4, the “% inhibition of RGS4-Gαo” value [7] is reported as 27%.

B5 was tested, and the Kd [8] was 11.6 nM.

B6 showed a Kd [8] of 8.17 nM.

Work on B7 yielded a Kd [8] of 6.84 nM.

In the case of B8, the Kd [8] is reported as 12.2 nM.

Work on B9 yielded a Kd [8] of 7.9 nM.

B10 was tested, and the “% inhibition of RGS4-Gαo” value [7] was 19%.
